The text below walks through data of patent US20190144537A1 (AVEO PHARMACEUTICALS, published 2019).

By Kd is commonly meant a measure of binding affinity in units of concentration. A word on the koff: it is the first-order rate constant of dissociation. Usually kon stands for the second-order rate constant of association.

In experiment [1] the target is T1, human Notch1 on the cell surface (human, UniProt P46531 19-2555).
T1 construct: whole, on cells; also called cell surface human Notch1; full length human Notch1
T1 sequence (P46531 19-2555): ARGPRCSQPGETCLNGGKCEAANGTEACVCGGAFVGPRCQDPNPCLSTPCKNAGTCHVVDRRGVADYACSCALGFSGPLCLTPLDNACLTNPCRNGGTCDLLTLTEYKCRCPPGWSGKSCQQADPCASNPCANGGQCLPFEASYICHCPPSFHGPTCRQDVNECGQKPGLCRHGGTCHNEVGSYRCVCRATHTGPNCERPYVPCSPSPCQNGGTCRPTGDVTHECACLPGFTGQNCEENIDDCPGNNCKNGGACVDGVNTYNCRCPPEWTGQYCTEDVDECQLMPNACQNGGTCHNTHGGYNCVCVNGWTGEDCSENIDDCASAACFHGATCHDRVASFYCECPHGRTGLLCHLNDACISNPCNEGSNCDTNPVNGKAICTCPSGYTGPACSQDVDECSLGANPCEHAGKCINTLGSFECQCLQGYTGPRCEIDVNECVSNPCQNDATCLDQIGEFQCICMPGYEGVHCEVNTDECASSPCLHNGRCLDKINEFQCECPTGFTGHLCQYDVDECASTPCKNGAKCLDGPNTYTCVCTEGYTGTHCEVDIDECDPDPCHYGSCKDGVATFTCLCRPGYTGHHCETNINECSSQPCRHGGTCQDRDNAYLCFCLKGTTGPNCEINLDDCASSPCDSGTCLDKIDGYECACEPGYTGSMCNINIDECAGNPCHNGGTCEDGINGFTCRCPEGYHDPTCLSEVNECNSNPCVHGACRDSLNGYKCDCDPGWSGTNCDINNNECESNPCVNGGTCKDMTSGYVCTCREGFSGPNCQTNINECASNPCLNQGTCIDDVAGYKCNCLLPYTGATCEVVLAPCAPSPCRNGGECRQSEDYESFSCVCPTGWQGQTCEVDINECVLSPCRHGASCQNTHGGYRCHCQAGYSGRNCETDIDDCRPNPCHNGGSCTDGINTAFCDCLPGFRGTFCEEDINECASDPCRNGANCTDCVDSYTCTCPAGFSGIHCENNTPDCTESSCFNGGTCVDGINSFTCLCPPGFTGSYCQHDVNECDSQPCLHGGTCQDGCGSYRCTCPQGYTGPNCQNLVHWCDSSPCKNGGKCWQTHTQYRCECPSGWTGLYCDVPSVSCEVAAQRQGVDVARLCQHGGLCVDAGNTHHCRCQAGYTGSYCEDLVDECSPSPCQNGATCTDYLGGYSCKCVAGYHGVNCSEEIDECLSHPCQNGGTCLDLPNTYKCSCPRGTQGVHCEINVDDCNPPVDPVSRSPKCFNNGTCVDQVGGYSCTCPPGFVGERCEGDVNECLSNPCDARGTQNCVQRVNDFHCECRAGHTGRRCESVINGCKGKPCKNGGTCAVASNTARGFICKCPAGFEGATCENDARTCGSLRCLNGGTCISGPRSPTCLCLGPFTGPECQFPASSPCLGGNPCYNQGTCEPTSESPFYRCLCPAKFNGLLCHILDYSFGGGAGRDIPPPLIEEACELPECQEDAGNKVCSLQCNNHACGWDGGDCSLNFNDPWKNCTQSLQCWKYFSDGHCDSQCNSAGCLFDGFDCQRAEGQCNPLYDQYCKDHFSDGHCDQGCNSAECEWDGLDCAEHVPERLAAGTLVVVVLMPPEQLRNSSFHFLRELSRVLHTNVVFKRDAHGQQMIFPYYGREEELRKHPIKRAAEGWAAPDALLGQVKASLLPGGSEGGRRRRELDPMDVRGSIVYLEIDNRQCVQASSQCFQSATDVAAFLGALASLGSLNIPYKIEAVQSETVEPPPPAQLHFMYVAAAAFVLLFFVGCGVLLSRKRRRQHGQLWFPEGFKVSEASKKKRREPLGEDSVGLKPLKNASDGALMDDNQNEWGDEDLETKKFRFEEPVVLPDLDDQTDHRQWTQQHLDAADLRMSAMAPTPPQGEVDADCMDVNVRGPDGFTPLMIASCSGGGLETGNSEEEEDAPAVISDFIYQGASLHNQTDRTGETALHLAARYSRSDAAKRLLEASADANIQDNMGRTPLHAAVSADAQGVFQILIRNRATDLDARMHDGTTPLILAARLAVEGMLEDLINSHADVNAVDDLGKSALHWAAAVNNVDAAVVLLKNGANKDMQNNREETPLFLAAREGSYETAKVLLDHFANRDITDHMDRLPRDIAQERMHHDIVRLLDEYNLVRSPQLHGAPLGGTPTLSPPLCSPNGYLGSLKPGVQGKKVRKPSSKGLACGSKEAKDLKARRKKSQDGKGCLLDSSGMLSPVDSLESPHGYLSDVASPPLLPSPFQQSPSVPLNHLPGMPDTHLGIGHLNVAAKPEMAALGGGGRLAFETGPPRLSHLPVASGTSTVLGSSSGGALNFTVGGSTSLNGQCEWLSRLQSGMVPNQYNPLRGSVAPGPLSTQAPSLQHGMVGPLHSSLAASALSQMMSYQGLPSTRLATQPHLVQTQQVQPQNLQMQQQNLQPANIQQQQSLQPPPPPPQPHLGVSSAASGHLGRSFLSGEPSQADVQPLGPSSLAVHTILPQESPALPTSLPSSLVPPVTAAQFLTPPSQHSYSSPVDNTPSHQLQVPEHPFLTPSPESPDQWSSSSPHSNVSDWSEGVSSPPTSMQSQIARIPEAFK
Description: FACS on FlpIn CHO cells expressing full length human Notch1, anti-human PE secondary antibody. As to the method:
(§1) Full length Notch receptor cDNAs cloned into pcDNA5FRT were transfected into FlpIn™ CHO cells and selected with 600 μg/ml hygromycin (Sigma), according to the manufacturer's protocol. Cell surface expression of Notch receptors is confirmed by FACS analysis using anti-Notch1 PE, anti-Notch2 PE or anti-Notch3 PE control antibodies (Biolegend). […] FACS is performed on a BD FACSCanto II cell analyzer (BD Biosciences) and analyzed using FlowJo software.

Experiment [2] addresses T2, recombinant human Notch3 extracellular domain (containing EGF like domains 1-11) Fc fusion protein (human, UniProt Q9UM47 40-467).
T2 construct: Bought from R&D Systems; also called rhNotch3-Fc; Notch3-Fc; not shown: Fc of the bought fusion protein
T2 sequence: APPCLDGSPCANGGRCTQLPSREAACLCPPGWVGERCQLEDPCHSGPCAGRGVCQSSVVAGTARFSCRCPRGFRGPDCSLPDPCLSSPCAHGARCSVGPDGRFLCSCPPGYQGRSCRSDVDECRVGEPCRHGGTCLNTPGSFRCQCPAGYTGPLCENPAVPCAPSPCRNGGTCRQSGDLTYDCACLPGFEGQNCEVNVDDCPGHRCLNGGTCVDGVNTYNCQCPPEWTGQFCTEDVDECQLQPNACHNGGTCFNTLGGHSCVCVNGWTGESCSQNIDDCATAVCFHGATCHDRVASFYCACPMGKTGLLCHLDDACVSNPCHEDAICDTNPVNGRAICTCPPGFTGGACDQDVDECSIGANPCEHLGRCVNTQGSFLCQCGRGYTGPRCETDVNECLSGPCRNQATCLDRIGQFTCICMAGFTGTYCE
Description: SPR (Biacore), 28042 captured as ligand, rhNotch3-Fc injected as sample, 25 C, 1:1 binding fit. As to the method: (§2) Rabbit anti-mouse IgGs (GE Healthcare) are immobilized on carboxymethylated dextran CM4 sensor chips (GE Healthcare) by amine coupling, according to a standard protocol. Analyses are performed at 25° C. and 37° C. using PBS containing 0.05% surfactant P20 as running buffer. The antibody is captured in individual flow cells at a flow rate of 10 μL/minute. Injection time is varied for each antibody to yield an R max between 30 and 60 RU. 250 μg/mL human IgG Fc is injected to block non-specific binding of Fc (from the Notch3 fusion protein) to the capture antibody. Buffer or rhNotch1-Fc (R&D Systems, Minneapolis, Minn.; Cat. No. 3647-TK-050), rhNotch2-Fc (R&D Cat. No. 3735-NT-050), and rhNotch3-Fc (R&D Cat. No. 1559-NT-050), diluted in running buffer is injected sequentially over a reference surface (no antibody captured) and the active surface (antibody to be tested) for 240 seconds at 60 μL/minute. The dissociation phase is monitored for up to 1500 seconds. The surface is then regenerated with two 60-second injections of 10 mM Glycine-HCl, pH 2.25, at a flow rate of 30 μL/minute. The rhNotch3-Fc, rhNotch2-Fc, and rhNotch1-Fc concentration range tested are 100 nM to 3.125 nM (2 fold dilution).
Background: SPR reads the build-up and loss of mass on a sensor chip optically.

A further experiment deals with T3, rhNotch1-Fc (human, UniProt P46531 19-1735).
T3 construct: extracellular domain; Bought from R&D Systems; also called R&D Cat. No. 3647-TK-050; not shown: Fc of the bought fusion protein
T3 sequence (P46531 19-1735): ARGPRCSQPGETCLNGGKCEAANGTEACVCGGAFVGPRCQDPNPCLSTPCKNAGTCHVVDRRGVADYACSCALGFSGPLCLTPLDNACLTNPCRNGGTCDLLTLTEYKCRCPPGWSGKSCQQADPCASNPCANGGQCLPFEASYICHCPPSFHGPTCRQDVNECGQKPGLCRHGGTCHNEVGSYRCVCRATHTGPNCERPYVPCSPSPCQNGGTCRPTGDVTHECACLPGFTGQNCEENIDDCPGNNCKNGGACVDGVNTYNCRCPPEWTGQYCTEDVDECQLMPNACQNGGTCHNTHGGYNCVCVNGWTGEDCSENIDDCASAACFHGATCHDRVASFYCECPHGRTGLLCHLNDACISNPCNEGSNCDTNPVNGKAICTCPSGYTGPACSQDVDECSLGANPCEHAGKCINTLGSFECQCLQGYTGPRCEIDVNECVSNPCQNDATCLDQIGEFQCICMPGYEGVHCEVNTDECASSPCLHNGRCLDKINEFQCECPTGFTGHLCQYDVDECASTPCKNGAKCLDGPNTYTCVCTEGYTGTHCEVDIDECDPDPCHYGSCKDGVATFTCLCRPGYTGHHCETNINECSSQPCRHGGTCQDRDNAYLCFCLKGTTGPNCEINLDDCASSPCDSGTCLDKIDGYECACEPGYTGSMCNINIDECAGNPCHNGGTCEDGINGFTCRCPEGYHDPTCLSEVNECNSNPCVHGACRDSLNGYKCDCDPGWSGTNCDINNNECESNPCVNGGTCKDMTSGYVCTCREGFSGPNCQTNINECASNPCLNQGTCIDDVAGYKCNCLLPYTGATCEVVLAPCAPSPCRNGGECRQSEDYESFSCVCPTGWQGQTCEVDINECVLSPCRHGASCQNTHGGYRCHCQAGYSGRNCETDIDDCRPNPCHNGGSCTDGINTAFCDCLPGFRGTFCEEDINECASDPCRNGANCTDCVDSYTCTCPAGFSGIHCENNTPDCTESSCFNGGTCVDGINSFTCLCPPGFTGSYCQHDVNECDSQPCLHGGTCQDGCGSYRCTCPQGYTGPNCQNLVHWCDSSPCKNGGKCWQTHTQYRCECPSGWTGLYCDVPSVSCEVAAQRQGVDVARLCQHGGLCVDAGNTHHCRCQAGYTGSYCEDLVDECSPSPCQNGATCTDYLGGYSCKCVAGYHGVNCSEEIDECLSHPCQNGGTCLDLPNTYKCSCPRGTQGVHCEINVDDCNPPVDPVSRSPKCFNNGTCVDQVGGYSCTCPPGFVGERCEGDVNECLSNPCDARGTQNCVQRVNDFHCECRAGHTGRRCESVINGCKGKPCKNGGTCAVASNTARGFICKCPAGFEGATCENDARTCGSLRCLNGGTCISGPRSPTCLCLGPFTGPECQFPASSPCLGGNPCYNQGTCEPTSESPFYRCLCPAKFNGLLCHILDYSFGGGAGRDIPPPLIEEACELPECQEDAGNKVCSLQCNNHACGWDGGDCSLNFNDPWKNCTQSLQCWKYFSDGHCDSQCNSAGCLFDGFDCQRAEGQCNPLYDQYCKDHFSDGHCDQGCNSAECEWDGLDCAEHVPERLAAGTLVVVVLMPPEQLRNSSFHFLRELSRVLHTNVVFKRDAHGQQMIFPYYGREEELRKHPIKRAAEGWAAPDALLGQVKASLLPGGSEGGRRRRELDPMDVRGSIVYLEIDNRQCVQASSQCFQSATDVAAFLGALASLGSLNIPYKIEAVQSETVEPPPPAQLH
Put plainly: SPR (Biacore), 28042 captured as ligand, rhNotch1-Fc as sample, 25 C; software 1:1 fit printed under a sensorgram that stays below about 1.5; the drawn table gives '-' for this pair. As to the method:
as §2

The target in experiment [3] is T2, recombinant human Notch3 extracellular …. Put plainly: SPR (Biacore), 28042 captured as ligand, rhNotch3-Fc injected as sample, 25 C, 1:1 binding fit; the same fit is printed under the Notch3 sensorgram as ka 2.720E+5. Here is the method: as §2
The target in experiment [4] is T4, murine Notch3 on the cell surface (murine, UniProt Q61982 40-2318).
T4 construct: whole, on cells; also called mNotch3; full length murine Notch3
Put plainly: FACS on FlpIn CHO cells expressing full length murine Notch3, 5 ug/ml antibody, anti-human PE secondary antibody. As to the method: as §1

The target in experiment [5] is T5, human Notch2 on the cell surface (human, UniProt Q04721 26-2471).
T5 construct: whole, on cells; also called cell surface human Notch2; full length human Notch2
Description: FACS on FlpIn CHO cells expressing full length human Notch2, anti-human PE secondary antibody. As to the method: as §1

Experiment [6] concerns the target T2, recombinant human Notch3 extracellular …. Put plainly: SPR (Biacore T100), antibody captured by goat anti-human IgG, rhNotch3-Fc injected, 25° C. Here is the method:
(§3) Goat anti-human IgG is immobilized on carboxymethylated dextran CM4 sensor chips (GE Healthcare) by amine coupling, according to a standard protocol. Analyses are performed at 25° C. and 37° C. using PBS containing 0.05% surfactant P20 as running buffer. The antibody is captured in individual flow cells at a flow rate of 10 μl/minute. Injection time is varied for each antibody to yield an R max between 30 and 60 resonance units (RU). 250 μg/mL human IgG Fc is injected to block non-specific binding of Fc (from the Notch3 fusion protein) to the capture antibody. Buffer or rhNotch3-Fc diluted in running buffer is injected sequentially over a reference surface (no antibody captured) and the active surface (antibody to be tested) for 240 seconds at 60 μL/minute. The dissociation phase is monitored for up to 1500 seconds. The surface is then regenerated with two 60-second injections of 10 mM Glycine-HCl, pH 2.25, at a flow rate of 30 μL/minute. The rhNotch3-Fc concentration range tested is 100 nM to 3.125 nM (2 fold dilution).
(§4) Kinetic parameters can be determined using the kinetic function of the BIAevaluation software (GE Healthcare) with double reference subtraction. Kinetic parameters for the antibody, kₐ (association rate constant), kd (dissociation rate constant) and KD (equilibrium dissociation constant) are determined.

The target is the same in experiment [7]. Put plainly: SPR (Biacore), 28042 captured as ligand, rhNotch3-Fc injected as sample, 25 C, 1:1 binding fit; the same fit is printed under the Notch3 sensorgram as kd 2.580E-4. As to the method:
as §2

Experiment [8] has the same target. Put plainly: SPR (Biacore T100), antibody captured by goat anti-human IgG, rhNotch3-Fc injected, 37° C. Here is the method:
as §3, §4

Experiment [9] concerns the target T6, human Notch3 on the cell surface (human, UniProt Q9UM47 40-2321).
T6 construct: whole, on cells; also called hNotch3; cell surface human Notch3
Put plainly: FACS at 4° C. on cells expressing human Notch3, one site binding fit; cell line not stated. From the text:
CHO N3 (Flp-In-CHO cells (Invitrogen) stably transfected with human Notch3), HCC2429 cells, and RL-952 cells expressing human Notch3 are washed once with PBS containing calcium chloride and magnesium chloride (Invitrogen) and harvested using cell dissociation buffer (Invitrogen). Cells are washed a second time with PBS and resuspended in FACS buffer (PBS with 0.5% BSA (Sigma-Aldrich)) for a final cell concentration of 250,000 cells per well into a 96-well v-bottom plate. Purified antibodies are diluted in FACS buffer over a concentration range of 100 nM to 0 nM. Cells are then incubated at 4° C. with 100 μL of antibody for one hour, washed with FACS buffer twice, and resuspended in 100 μL of goat-anti mouse PE-conjugated antibody (Jackson Immuno Research). Cells are incubated at 4° C. for 30 minutes in the dark, washed once with FACS buffer, and then analyzed using a Beckman Coulter Cytomics FC 500 instrument. The geometric mean of the florescent intensity then is calculated for each antibody concentration. These values then are entered into Prism software (GraphPad, La Jolla, Calif.) and used to generate a binding curve by plotting geometric mean versus antibody concentration.

For the next experiment, the target named is T7, cynoNotch3 monomer (cyno).
T7 construct: Only named as 'cynoNotch3 monomer'
Put plainly: binding to cynoNotch3 monomer at 25° C., protocol similar to that for hNotch3 (method not named).

Experiment [10] has as its target T6, human Notch3 on the cell surface. Put plainly: cell-based or functional assay.

B1: 28042 antibody (antibody, human IgG1, kappa, V domains shown)
VH: EVQLLESGGGLVQPGGSLRLSCAASGFTFSDYMMSWVRQAPGKGLEWVSWIRSSGGTTLYADSVKGRFTISRDNSKNTLYLQMNSLRAEDTATYYCARVGGGTTGYAFDIWGQGTMVTVSS
VL: DIQMTQSPSSLSASVGDRVTITCRASQSISNYLNWYQQKPGKAPKLLIYGASSLQSGVPSRVSGTGSGTDFTLTISSLQPEDFATYYCQQSYSPSFTFGPGTKVDFER
With B1, the binding result is listed as “no binding” in [1], “binds” in experiment [4] and “no binding” in experiment [5]. The dissociation constant Kd was determined as 0.948 nM in experiment [2]; 2.55 nM in experiment [6]; 4.18 nM in experiment [8]; 2.72 nM in experiment [9]; 806 nM in the experiment with cynoNotch3 monomer. For the same molecule, the off-rate constant (koff) with rhNotch1-Fc was 0.000313 s⁻¹; in experiment [6], 0.000299 s⁻¹; in experiment [7], 0.000258 s⁻¹; in experiment [8] it was 0.000396 s⁻¹. For the same molecule, the on-rate constant (kon) with rhNotch1-Fc was 104000 M⁻¹ s⁻¹; in experiment [3], 272000 M⁻¹ s⁻¹; in [6], 177000 M⁻¹ s⁻¹; in experiment [8], 94700 M⁻¹ s⁻¹. The “IC50; % inhibition of hJag2-mFc-stimulated RBP-Jk luciferase reporter activity in MDA-MB-468 cells with endogenous human Notch3” value in experiment [10] was 0.53 ug/ml (unit taken from the x axis 'log (ug/ml)'; the table prints none). In experiment [10], the “LogIC50; same reporter assay” value was -0.276 log (ug/ml).
